Results as given in the supplement of paper PMC9112550, “Optimization of the antimicrobial peptide Bac7 by deep mutational scanning” (BMC Biology, 2022).

Test system: Escherichia coli TOP10
Assay: shrunken log2 fold change of peptide-encoding DNA abundance (4.5 h post-induction vs induction); higher = less antimicrobial activity (less host growth inhibition)
Conditions: time post-induction: 4.5 h; library: site-saturation at positions 5, 18, 19, 20
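Also: peptides expressed intracellularly from a pBAD plasmid library in pooled LB shake-flask culture, induced with 0.3% L-arabinose, DNA abundance read by NGS, three biological replicates, DESeq2 with apeglm shrinkage.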

Sequence	shrunken log2 fold change
RRIRSRPPRLPRPRPRPHMWPRP	0.202
RRIRSRPPRLPRPRPRPHNKPRP	-0.71
RRIRSRPPRLPRPRPRPHPKPRP	0.12
RRIRSRPPRLPRPRPRPHQFPRP	-0.124
RRIRSRPPRLPRPRPRPHRHPRP	-0.0713
RRIRSRPPRLPRPRPRPHSCPRP	-0.0203
RRIRSRPPRLPRPRPRPHVCPRP	0.0517
RRIRSRPPRLPRPRPRPHVHPRP	-0.412
RRIRSRPPRLPRPRPRPHVLPRP	-0.54
RRIRSRPPRLPRPRPRPHWRPRP	0.39
RRIRSRPPRLPRPRPRPHYKPRP	-0.891
RRIRSRPPRLPRPRPRPICYPRP	-0.475
RRIRSRPPRLPRPRPRPIECPRP	-0.139
RRIRSRPPRLPRPRPRPIEDPRP	0.0359
RRIRSRPPRLPRPRPRPIEFPRP	-0.387
RRIRSRPPRLPRPRPRPIENPRP	-0.00961
RRIRSRPPRLPRPRPRPIHFPRP	-0.106
RRIRSRPPRLPRPRPRPIIMPRP	-0.35
RRIRSRPPRLPRPRPRPIKSPRP	0.041
RRIRSRPPRLPRPRPRPILNPRP	-0.183
RRIRSRPPRLPRPRPRPILWPRP	-0.0848
RRIRSRPPRLPRPRPRPIPHPRP	-0.184
RRIRSRPPRLPRPRPRPIPKPRP	0.125
RRIRSRPPRLPRPRPRPIPLPRP	-0.115
RRIRSRPPRLPRPRPRPIQEPRP	0.000527

Sequence	shrunken log2 fold change
RRIRSRPPRLPRPRPRPIREPRP	-0.0902
RRIRSRPPRLPRPRPRPIRLPRP	-0.27
RRIRSRPPRLPRPRPRPISNPRP	-0.338
RRIRSRPPRLPRPRPRPITDPRP	-0.0789
RRIRSRPPRLPRPRPRPIVTPRP	-0.192
RRIRSRPPRLPRPRPRPIYRPRP	0.0394
RRIRSRPPRLPRPRPRPIYYPRP	-0.641
RRIRSRPPRLPRPRPRPKENPRP	-0.0465
RRIRSRPPRLPRPRPRPKFLPRP	-0.0307
RRIRSRPPRLPRPRPRPKFQPRP	0.146
RRIRSRPPRLPRPRPRPKFRPRP	-0.183
RRIRSRPPRLPRPRPRPKIPPRP	1.16
RRIRSRPPRLPRPRPRPKKYPRP	-0.3
RRIRSRPPRLPRPRPRPKLDPRP	-0.037
RRIRSRPPRLPRPRPRPKMIPRP	-0.292
RRIRSRPPRLPRPRPRPKNFPRP	-0.053
RRIRSRPPRLPRPRPRPKNGPRP	-0.105
RRIRSRPPRLPRPRPRPKPAPRP	0.555
RRIRSRPPRLPRPRPRPKRLPRP	0.297
RRIRSRPPRLPRPRPRPKRSPRP	0.205
RRIRSRPPRLPRPRPRPKSFPRP	0.172
RRIRSRPPRLPRPRPRPKSPPRP	0.291
RRIRSRPPRLPRPRPRPKSSPRP	-0.176
RRIRSRPPRLPRPRPRPKTAPRP	0.097
RRIRSRPPRLPRPRPRPKTLPRP	2.07

Sequence	shrunken log2 fold change
RRIRSRPPRLPRPRPRPKVMPRP	0.0101
RRIRSRPPRLPRPRPRPKYPPRP	-0.186
RRIRSRPPRLPRPRPRPLAFPRP	-0.0837
RRIRSRPPRLPRPRPRPLCFPRP	-0.0528
RRIRSRPPRLPRPRPRPLCPPRP	-0.0602
RRIRSRPPRLPRPRPRPLCSPRP	0.0443
RRIRSRPPRLPRPRPRPLDLPRP	-0.154
RRIRSRPPRLPRPRPRPLEMPRP	-0.314
RRIRSRPPRLPRPRPRPLENPRP	-0.0294
RRIRSRPPRLPRPRPRPLEYPRP	-0.277
RRIRSRPPRLPRPRPRPLFPPRP	-0.00148
RRIRSRPPRLPRPRPRPLGYPRP	-0.351
RRIRSRPPRLPRPRPRPLHTPRP	0.0576
RRIRSRPPRLPRPRPRPLKCPRP	-0.0843
RRIRSRPPRLPRPRPRPLKLPRP	-0.15
RRIRSRPPRLPRPRPRPLLHPRP	-0.0854
RRIRSRPPRLPRPRPRPLMNPRP	-0.204
RRIRSRPPRLPRPRPRPLMYPRP	-0.197
RRIRSRPPRLPRPRPRPLNQPRP	0.479
RRIRSRPPRLPRPRPRPLTDPRP	-0.162
RRIRSRPPRLPRPRPRPLTLPRP	-0.599
RRIRSRPPRLPRPRPRPLTRPRP	0.0286
RRIRSRPPRLPRPRPRPLVKPRP	-0.111
RRIRSRPPRLPRPRPRPLWLPRP	-0.0472
RRIRSRPPRLPRPRPRPLYDPRP	-0.113

Sequence	shrunken log2 fold change
RRIRSRPPRLPRPRPRPMACPRP	-0.342
RRIRSRPPRLPRPRPRPMDVPRP	-0.02
RRIRSRPPRLPRPRPRPMDYPRP	0.0691
RRIRSRPPRLPRPRPRPMICPRP	-0.0898
RRIRSRPPRLPRPRPRPMKKPRP	-0.0833
RRIRSRPPRLPRPRPRPMKPPRP	-0.0309
RRIRSRPPRLPRPRPRPMLPPRP	-0.078
RRIRSRPPRLPRPRPRPMNKPRP	-0.6
RRIRSRPPRLPRPRPRPMNRPRP	-0.378
RRIRSRPPRLPRPRPRPMPDPRP	0.235
RRIRSRPPRLPRPRPRPMPKPRP	0.0763
RRIRSRPPRLPRPRPRPMQLPRP	0.115
RRIRSRPPRLPRPRPRPMQRPRP	0.281
RRIRSRPPRLPRPRPRPMQYPRP	-0.289
RRIRSRPPRLPRPRPRPMRSPRP	0.0162
RRIRSRPPRLPRPRPRPMSPPRP	-0.125
RRIRSRPPRLPRPRPRPMVCPRP	0.188
RRIRSRPPRLPRPRPRPMVEPRP	0.884
RRIRSRPPRLPRPRPRPMWVPRP	-0.0635
RRIRSRPPRLPRPRPRPMYMPRP	-0.387
RRIRSRPPRLPRPRPRPNACPRP	0.0406
RRIRSRPPRLPRPRPRPNAEPRP	0.572
RRIRSRPPRLPRPRPRPNETPRP	-0.198
RRIRSRPPRLPRPRPRPNFPPRP	0.0832
RRIRSRPPRLPRPRPRPNHHPRP	-0.566

Sequence	shrunken log2 fold change
RRIRSRPPRLPRPRPRPNHVPRP	-0.803
RRIRSRPPRLPRPRPRPNIFPRP	-0.138
RRIRSRPPRLPRPRPRPNKDPRP	-0.651
RRIRSRPPRLPRPRPRPNKEPRP	0.0328
RRIRSRPPRLPRPRPRPNLEPRP	-0.144
RRIRSRPPRLPRPRPRPNMEPRP	-0.154
RRIRSRPPRLPRPRPRPNNIPRP	-0.564
RRIRSRPPRLPRPRPRPNQEPRP	0.0169
RRIRSRPPRLPRPRPRPNRRPRP	-0.0429
RRIRSRPPRLPRPRPRPNTEPRP	0.121
RRIRSRPPRLPRPRPRPNWFPRP	-0.0702
RRIRSRPPRLPRPRPRPNYQPRP	-0.199
RRIRSRPPRLPRPRPRPPALPRP	0.453
RRIRSRPPRLPRPRPRPPAPPRP	0.906
RRIRSRPPRLPRPRPRPPATPRP	0.725
RRIRSRPPRLPRPRPRPPCDPRP	0.0563
RRIRSRPPRLPRPRPRPPCRPRP	0.426
RRIRSRPPRLPRPRPRPPCTPRP	-0.174
RRIRSRPPRLPRPRPRPPDIPRP	-0.283
RRIRSRPPRLPRPRPRPPDSPRP	0.322
RRIRSRPPRLPRPRPRPPHAPRP	0.629
RRIRSRPPRLPRPRPRPPHIPRP	-0.0943
RRIRSRPPRLPRPRPRPPIAPRP	2.36
RRIRSRPPRLPRPRPRPPIPPRP	0.0379
RRIRSRPPRLPRPRPRPPKGPRP	0.144

Sequence	shrunken log2 fold change
RRIRSRPPRLPRPRPRPPKHPRP	0.2
RRIRSRPPRLPRPRPRPPKTPRP	-0.0288
RRIRSRPPRLPRPRPRPPLDPRP	0.289
RRIRSRPPRLPRPRPRPPLTPRP	0.367
RRIRSRPPRLPRPRPRPPMMPRP	0.0697
RRIRSRPPRLPRPRPRPPPFPRP	0.449
RRIRSRPPRLPRPRPRPPQIPRP	0.138
RRIRSRPPRLPRPRPRPPREPRP	0.622
RRIRSRPPRLPRPRPRPPRIPRP	0.132
RRIRSRPPRLPRPRPRPPRPPRP	0.684
RRIRSRPPRLPRPRPRPPSMPRP	0.13
RRIRSRPPRLPRPRPRPPSNPRP	-0.00786
RRIRSRPPRLPRPRPRPPTDPRP	0.429
RRIRSRPPRLPRPRPRPPTRPRP	0.651
RRIRSRPPRLPRPRPRPPYNPRP	-0.602
RRIRSRPPRLPRPRPRPQALPRP	0.0266
RRIRSRPPRLPRPRPRPQDFPRP	-0.161
RRIRSRPPRLPRPRPRPQDNPRP	-0.362
RRIRSRPPRLPRPRPRPQDPPRP	0.122
RRIRSRPPRLPRPRPRPQGIPRP	0.0897
RRIRSRPPRLPRPRPRPQGMPRP	-0.124
RRIRSRPPRLPRPRPRPQGRPRP	-0.0801
RRIRSRPPRLPRPRPRPQHRPRP	-0.222
RRIRSRPPRLPRPRPRPQIAPRP	-0.102
RRIRSRPPRLPRPRPRPQINPRP	-0.46
